This is an account of results in PMC4411124.

Series [1] addresses T1, SoxR (Stenotrophomonas maltophilia K279a) (UniProt B2FRT7).
T1 sequence: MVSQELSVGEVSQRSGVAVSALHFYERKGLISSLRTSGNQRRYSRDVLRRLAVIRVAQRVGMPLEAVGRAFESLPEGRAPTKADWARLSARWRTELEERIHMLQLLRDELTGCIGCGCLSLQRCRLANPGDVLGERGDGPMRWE
Kind of series: competition.

Series [2] addresses T1, SoxR (Stenotrophomonas maltophilia K279a). Nature of the series: EMSA. In general terms: In EMSA bound probe runs differently from free probe, usually more slowly.

As for “GAGGGTCGGGGTCATACGGGTCAGATGCGGGCCGCGCTTGTCAACCGACGGCGAAGATAGCAGCATGACACCTCAACTGCAGTTGAGGTCAAGCAATGGTGTCCCAGGAACTGAGCGTTGGCGAAGTCTCCCAGCGCAGTGGCGTGGCGGTTTCCGCGCTGCACTTCTACGAGCGCAAGGGGCTGATCAGCAGCCTGCGCACTTCGGGTAACCAGCGCCGCTACAGCCGCGACGTGCTGCGCCGGCTGGCGGTGATCCGC (double strand) [mfsA-soxR promoter fragment, 258 bp, wild type]”, the binding result in series [1] and in series [2] was “binds” each time. Consider “GCGGATCACCGCCAGCCGGCGCAGCACGTCGCGGCTGTAGCGGCGCTGGTTACCCGAAGTGCGCAGGCTGCTGATCAGCCCCTTGCGCTCGTAGAAGTGCAGCGCGGAAACCGCCACGCCACTGCGCTGGGAGACTTCGCCAACGCTCAGTTCCTGGGACACCATTGCTTGAAAGACCAGTACTGTGAGGTGTCATGCTGCTATCTTCGCCGTCGGTTGACAAGCGCGGCCCGCATCTGACCCGTATGACCCCGACCCTC (double strand) [mfsA-soxR promoter fragment, 258 bp, mutated SoxR box]”, for which the binding entry in series [2] is “no binding”.
